Source: IntAct's records for PubMed 11483516

B1: STAM-binding protein (Homo sapiens), O95630 (parent)
chain: MSDHGDVSLPPEDRVRALSQLGSAVEVNEDIPPRRYFRSGVEIIRMASIYSEEGNIEHAFILYNKYITLFIEKLPKHRDYKSAVIPEKKDTVKKLKEIAFPKAEELKAELLKRYTKEYTEYNEEKKKEAEELARNMAIQQELEKEKQRVAQQKQQQLEQEQFHAFEEMIRNQELEKERLKIVQEFGKVDPGLGGPLVPDLEKPSLDVFPTLTVSSIQPSDCHTTVRPAKPPVVDRSLKPGALSNSESIPTIDGLRHVVVPGRLCPQFLQLASANTARGVETCGILCGKLMRNEFTITHVLIPKQSAGSDYCNTENEEELFLIQDQQGLITLGWIHTHPTQTAFLSSVDLHTHCSYQMMLPESVAIVCSPKFQETGFFKLTDHGLEEISSCRQKGFHPHSKDPPLFCSCSHVTVVDRAVTITDLR
partner: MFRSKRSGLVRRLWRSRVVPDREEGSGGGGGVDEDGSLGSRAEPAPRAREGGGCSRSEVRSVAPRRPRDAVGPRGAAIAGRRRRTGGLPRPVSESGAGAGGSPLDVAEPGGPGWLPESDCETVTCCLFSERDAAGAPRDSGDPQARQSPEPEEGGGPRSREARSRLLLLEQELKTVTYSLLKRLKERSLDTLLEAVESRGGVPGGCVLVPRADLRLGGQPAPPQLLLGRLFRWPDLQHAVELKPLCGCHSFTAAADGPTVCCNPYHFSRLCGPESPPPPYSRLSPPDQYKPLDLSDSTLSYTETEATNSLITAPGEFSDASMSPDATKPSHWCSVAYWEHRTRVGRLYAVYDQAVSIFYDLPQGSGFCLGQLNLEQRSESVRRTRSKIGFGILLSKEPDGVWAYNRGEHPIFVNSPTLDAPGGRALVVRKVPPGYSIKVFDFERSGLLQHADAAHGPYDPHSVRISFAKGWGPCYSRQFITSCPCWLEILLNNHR

Variants of: B1
Details: with smad6_mouse Smad6, O35182
For MSDHGDVSLPPEDRVRALSQLGSAVEVNEDIPPRRYFRSGVEIIRMASIYSEEGNIEHAFILYNKYITLFIEKLPKHRDYKSAVIPEKKDTVKKLKEIAFPKAEELKAELLKRYTKEYTEYNEEKKKEAEELARNMAIQQELEKEKQRVAQQKQQQLEQEQFHAFEEMIRNQELEKERLKIVQEFGKVDPGLGGPLVPDLEKPSLDVFPTLTVSSIQPSDCHTTVRPAKPPVVDRSLKPGALANAEAIPTIDGLRHVVVPGRLCPQFLQLASANTARGVETCGILCGKLMRNEFTITHVLIPKQSAGSDYCNTENEEELFLIQDQQGLITLGWIHTHPTQTAFLSSVDLHTHCSYQMMLPESVAIVCSPKFQETGFFKLTDHGLEEISSCRQKGFHPHSKDPPLFCSCSHVTVVDRAVTITDLR [S243A;S245A;S247A], the “effect of a mutation on the interaction” value was “increasing interaction”.
